Tests used:
[1] = system: ETP transfected MCF7 cells; assay: ETP transfected MCF7 tumor growth in nude mice; type: in vivo
Method: FIGS. 5A-C. Antibody effects on ETP-MCF7 cells in vivo. (FIG. 5A) ETP transfected MCF7 cells (2×10^6 cells) were implanted into nude mice. An estradiol pellet (0.72 mg) was implanted into nude mice. Then (i) 20 mg/kg ETPmAb4, (ii) 10 mg/kg ETPmAb4 with 10 mg/kg control IgG, (iii) 5 mg/kg ETPmAb4 with 15 mg/kg control IgG, (iv) 2 mg/kg ETPmAb4 with 18 mg/kg control IgG, and (v) 20 mg/kg control IgG (twice a week) were injected after 10-days implantation for 5-weeks. Tumor volume was determined by caliper measurement. Data was represented as mean±SD (n=5/group), and *** p<0.0001 by ANOVA followed by Newman-Keuls multiple comparison test. (FIG. 5B) Total RNA was prepared from tumor tissues from ETP transfected MCF7, ETPmAb4 treatment mice. The EMT markers genes Twist, Snail, Cdh2 and Cdh 1 were determined by qRT-PCR, then normalized to GAPDH. E-CAD immunofluorescence staining for tumor tissues from ETP transfected MCF7 and ETPmAb4 treatment tumor. (FIG. 5C) MCF7 and ETP transfected MCF7 cells (2×10^6 cells) were implanted into nude mice. An estradiol pellet (0.72 mg) was implanted into nude mice. Then 20 mg/kg of antibody ETPmAb4 (twice a week), and 2.5 mg/kg of cisplatin (once a week) were injected after 10-days implantation for 6-weeks. Tumor volume was determined by caliper measurement. Data was represented as mean±SD (n=5/group), and *** p<0.0001 by ANOVA followed by Newman-Keuls multiple comparison test.
Animal experiments. NU/NU nude female mice were purchased from Charles River (Crl: NU-Foxnlnu; Strain Code 088 (Homozygous)). Breast cancer cells (2×10^6 cells) were implanted by intraductal injection. All cell lines were mixed on ice with 1×PBS and Matrigel. Then 100 μL of mixture was injected into mice. Tumors were measured twice a week, beginning 10 days after injection, and tumor volume was calculated by length×(width) 2/2 (mm^3).
(§1) Analysis of Tumor Progression. Tumor onset was monitored twice weekly by palpation. Tumor sizes were measured using a digital caliper twice weekly and the volumes were calculated as length× width2)/2. Inguinal tumors were weighted to determine tumor burden. Animals were sacrificed when the tumor burden visibly affected the host, or when the tumors reached the IACUC pre-determined limit of 20 mm along one axis.
As a next step, whether the anti-endotrophin antibodies effectively curb the aggressive tumor growth observed in endotrophin overexpressing MCF-7 cells was examined. To boost the growth rate of the tumor cells, these assays were performed in the presence of estradiol pellets. Cells (2×10^6 cells) were injected into nude mice and their tumor growth was monitored over time, based on a twice weekly injection of either a control monoclonal preparation, or ETPmAb4; in all cases, a total of 20 mg/kg of antibody was used. The dose dependence was tested by either injecting 20 mg/kg of control antibody, 20 mg/kg of ETPmAb4, or a mixture of the two with decreasing levels of control antibody mixed with increasing levels of ETPmAb4.
To test this, MCF7 cells were used with or without endotrophin overexpression, and the cells were transplanted into nude mice, in the presence of estradiol pellets (FIG. 5C). […] As expected, MCF7 cells harboring an excess in endotrophin grew very aggressively (FIG. 5C; red line).

[2] = system: MDA-MB-231 cells; assay: MDA-MB-231 tumor growth in nude mice; type: in vivo
Method: FIGS. 6A-D. The antibody effects on MDA-MB-231 cells in vivo. (FIG. 6A) MDA-MB-231 cells (2×10^6 cells) were implanted into nude mice. Then 2.5 mg/kg of cisplatin and 20 mg/kg of ETPmAb4 antibody (twice a week) were injected after 10-days implantation for 5-weeks. Tumor volume was determined by caliper measurement. The insert reflects a simplified analysis of control antibody versus ETPmAb4 with associated statistics. (FIG. 6B) MDA-MB-231 cells (2×10^6 cells) were implanted into nude mice. Treatment was started when the tumor volume was over 30 mm^3. At that point, 2.5 mg/kg of cisplatin and 20 mg/kg of ETPmAb4 antibody (twice weekly) were injected for 5-weeks. Tumor volumes were determined by caliper measurements. The insert reflects a simplified analysis of control antibody versus ETPmAb4 with associated statistics. (FIG. 6C) SKOV3 cells (2×10^6 cells) were implanted into nude mice. Then 2.5 mg/kg of cisplatin and 20 mg/kg of ETPmAb4 antibody (twice weekly) were injected 10-days after implantation for 5-weeks. Tumor volumes were determined by caliper measurements. The insert reflects a simplified analysis of control antibody versus ETPmAb4 with associated statistics. (FIG. 6D) MDA-MB-231 cells (2×10^6 cells) were implanted into nude mice. Then 2.5 mg/kg of cisplatin, 20 mg/kg of ETPmAb4 antibody and 20 mg/kg of humanized ETPmAb4 antibody (twice a week) were injected after 10-days implantation for 5-weeks. Tumor volume was determined by caliper measurement. […]
Animal experiments. […] Tumors were measured twice a week, beginning 10 days after injection, and tumor volume was calculated by length×(width) 2/2 (mm^3).
as §1, with “Inguinal tumors were weighted to determine tumor burden.” left out, “axis. […]” for “axis.”
After humanization, the binding affinity of hETPmAb4 to endotrophin was measured in Octet RED96. […]

B1: ETP-mAb4: rabbit monoclonal anti-human endotrophin antibody selected for further study; VH SEQ ID NO: 125, VL SEQ ID NO: 126 (antibody, V domains shown)
VH: SSRVKESGGDLVKPGASLTLTCKASGFSFSSGYYICWVRQAPGKGLEWIACIYGGNNNPYYANWVNGRFTTSKTSSTTVTLQMTNLTGADTATYFCARKDINIGGAYELWGPGTLVTISS
VL: ELVMTQTPASVSEPVGGTVTINCQASQSISSSYLSWYQQKPGQPPKLLIYKASTLASGVPSRFKGSGSGTQFSLTISDLECADAATYYCQYSDWANSYGNAFGGGTEVVVK
lesion growth, combination with cisplatinum ([1]; 20 mg/kg ETPmAb4 twice a week plus 2.5 mg/kg cisplatin once a week): lesion growth was reduced down to essentially baseline
tumor growth at the highest dose ([1]; 20 mg/kg twice a week, estradiol pellet): almost completely curbing the aggressive tumor growth
rate of tumor growth ([1]; 2-20 mg/kg twice a week, estradiol pellet, vs control IgG): significantly reduced in a dose-dependent fashion the rate of tumor growth over time
EMT signature in tumor tissue (Twist, Snail, Cdh2, Cdh1 qPCR) ([1]; antibody-treated tumors): reduced EMT signature
lesion growth, combination with cisplatinum ([2]; 20 mg/kg antibody plus 2.5 mg/kg cisplatin): essentially inhibited lesion growth
rate of tumor growth, antibody alone ([2]; 20 mg/kg twice a week): significantly reduced the rate of tumor growth

From patent publication US12331110B2, “Monoclonal antibodies against endotrophin and the use thereof” (THE BOARD OF REGENTS OF THE UNIVERSITY OF TEXAS SYSTEM, priority 2018, dated 2025)
